The record followed here is patent publication US6018029.

The target of the assay is IL-1 receptor on the THP-1 human monocyte cell line (human) (UniProt P14778).

For IL-1B (ligand), the IL-6 message level (IL-6 mRNA, Northern blot, arbitrary units) (arbitrary units) was found to be 12.
